# Results reported in PMC4211652 (Biochemistry, 2014).
# No end group written: not given here.
# T1: S100B (rat), Ca2+-loaded (rat, UniProt P04631 1-92)
# T1 sequence: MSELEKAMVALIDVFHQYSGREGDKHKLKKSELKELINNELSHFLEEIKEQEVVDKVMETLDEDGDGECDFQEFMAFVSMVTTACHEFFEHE
# Molecular target: the molecule itself
# Test: crystal structure
row,Binder,binding result
1,"Ca2+-bound S100B (bovine) covalently modified at Cys84 by SC124 (natural protein, Cys84 covalently bound to the adduct of SC124 (disulfiram)) MSELEKAVVALIDVFHQYSGREGDKHKLKKSELKELINNELSHFLEEIKEQEVVDKVMETLDSDGDGECDFQEFMAFVAMITTACHEFFEHE",binds
2,"Ca2+-bound S100B (bovine) covalently modified at Cys84 by SC1982 (natural protein, Cys84 covalently bound to SC1982 (Rubescensin A) by Michael addition) MSELEKAVVALIDVFHQYSGREGDKHKLKKSELKELINNELSHFLEEIKEQEVVDKVMETLDSDGDGECDFQEFMAFVAMITTACHEFFEHE",binds
3,"Ca2+-bound S100B (bovine) covalently modified at Cys84 by SBi4434 (natural protein, Cys84 covalently bound to SBi4434 (2,3-bis[(2-hydroxyethyl)thio]-1,4-naphthoquinone), the thiol replacing one thioglycol moiety) MSELEKAVVALIDVFHQYSGREGDKHKLKKSELKELINNELSHFLEEIKEQEVVDKVMETLDSDGDGECDFQEFMAFVAMITTACHEFFEHE",binds
4,"Ca2+-bound S100B (bovine) covalently modified at Cys84 by SC1475 (natural protein, Cys84 covalently bound to SC1475 (3,4-dimethoxydalbergione)) MSELEKAVVALIDVFHQYSGREGDKHKLKKSELKELINNELSHFLEEIKEQEVVDKVMETLDSDGDGECDFQEFMAFVAMITTACHEFFEHE",binds
5,"Ca2+-bound S100B (bovine) covalently modified at Cys84 by SBi4172 (natural protein, Cys84 covalently bound to SBi4172 (chelerythrine); the compound could be modelled in chain B only) MSELEKAVVALIDVFHQYSGREGDKHKLKKSELKELINNELSHFLEEIKEQEVVDKVMETLDSDGDGECDFQEFMAFVAMITTACHEFFEHE",binds

# Molecular target: T1, S100B (rat), Ca2+-loaded
# Test: fluorescence polarisation
row,Binder,binding result
1,"TRTKIDWNKILS (also: TAMRA label, position not given here) [TAMRA-labeled peptide TRTK12]",binds
